The target of this data set is Streptavidin (UniProt P22629 P22629:25-183). Description: no specific binding to plate; same buffer, room temp. The following applies: chain copies: 4. The method, then: Obtained vectors were tested for binding a streptavidin-coated plate. The amount of DNA retained on the plate was detected by pico-green incorporation assay.
DNA was mixed with streptavidin-coated plate in binding buffer for 2 h, at room temp. Plate was washed 3× with same binding buffer, and the DNA that was bound to the plate was detected with PicoGreen assay in plate, without detaching DNA. [0490] Binding buffer (10×) [0491] 1 M NaCl [0492] 20 mM MgCl2 [0493] 50 mM KCl [0494] 10 mM CaCl2) [0495] 200 mM Tris-HCl, pH 7.6

Streptavidin, sequence (P22629 25-183, one chain of several): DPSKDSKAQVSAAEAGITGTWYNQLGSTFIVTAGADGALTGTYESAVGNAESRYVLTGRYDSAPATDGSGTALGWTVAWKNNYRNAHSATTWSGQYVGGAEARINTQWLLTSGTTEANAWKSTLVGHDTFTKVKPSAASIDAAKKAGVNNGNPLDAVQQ

B1: noApt vector cap (control) (structured_DNA)
DNA: CTGCTCACCTGCCAGCTACGGACGCGGAACGCGTCCGTAGCTGGCAGGTGAGCAG
As for B1, the binding result is listed as “no binding”.

The values are drawn from patent US20230357790, “SELF-TARGETING EXPRESSION VECTOR” (Touchlight IP Limited, published 2023).
